The source of these data is PMC10164081.

The target of assay [1] is purified Ric-8B (peptide-binding thermal shift assay) (mouse) (UniProt Q80XE1). As to the kind of experiment: differential scanning fluorimetry. A general note: DSF heats the sample and reads unfolding from a dye or from intrinsic fluorescence.
The target of assay [2] is Gαolf (human) (UniProt P38405).

Substitutions are numbered along the chain they refer to. In names and notes the source's numbering stands. Where no end group is shown, it is not given here.

Sequence of Gαolf (human) (P38405 whole entry): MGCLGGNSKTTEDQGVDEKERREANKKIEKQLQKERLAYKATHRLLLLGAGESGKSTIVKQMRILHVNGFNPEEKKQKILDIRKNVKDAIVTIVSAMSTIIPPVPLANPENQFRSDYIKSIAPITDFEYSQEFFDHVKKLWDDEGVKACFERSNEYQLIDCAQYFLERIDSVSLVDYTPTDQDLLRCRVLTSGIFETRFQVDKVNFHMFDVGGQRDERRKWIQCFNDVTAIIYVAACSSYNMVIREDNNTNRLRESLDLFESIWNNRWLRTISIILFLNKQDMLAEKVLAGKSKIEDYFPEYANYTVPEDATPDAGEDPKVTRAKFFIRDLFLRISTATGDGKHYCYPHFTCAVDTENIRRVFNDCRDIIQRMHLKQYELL

Turning to NDCRDIIQRMHLRQLMLQ-NH2 [Gαs/Gα13 C-term chimera amidated peptide], the maximal thermal shift (ΔTm) in assay [1] was 4.8 °C.

B1: Ric-8B F126A (natural protein)
chain: MDEERALYIVRAGEAGAIERVLRDYSDKHRATFKFESADEDKRKKLCEGIFKVLVKEVPTTCQVSCLEVLRILSRDKKILVPVTTKENMQILLRLAKLHESDDSLEKVSEFPVIVESLKCLCNIVANSQMAQQLSLELNLAAKLCNLLRKCKDRKFINDIKCFDLRLLFVLSLLHTDIRSQLRYELQGLPLLTQILESAFSIKWTDEYESAIDHNGPPLSPQETDCAIEALKALFNVTVDSWKVHKESDSHQFRVMAAVLRHCLLIVGPTEDKTEELHSNAVNLLSNVPVSCLDVLICPLTHEETAQEAATLDELPSDKTTEKDTALKNSTMVYNGMNMEAIHVLLNFMEKRIDKGSSYREGLTPVLSLLTECSRAHRNIRKFLKDQVLPPLRDVTNRPEVGSTVRNKLVRLMTHVDLGVKQIAAEFLFVLCKERVDSLLKYTGYGNAAGLLAARGLLAGGRGDNWYSEDEDTDTEEYKNAKP
Take B1: the folding of the Gαolf-RLuc sensor (luminescence) in RIC-8B knockout HEK293T cells in assay [2] worked out at 20 % reduction.

B2: Ric-8B R166A (natural protein)
chain: B1 chain with A126F, R166A
B2: in assay [2], the folding of the Gαolf-RLuc sensor (luminescence) in RIC-8B knockout HEK293T cells was found to be 59 % decrease.
